Results on 26 sequences are retold here after the supplement of paper PMC9170038.

For the series, the system named is MS2 coat protein. Description: apparent KD of MS2 coat protein; designed switch direction (-1 OFF switch, 1 ON switch): -1; higher = weaker reporter binding. In outline:
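RNA switches sharing common flanks were transcribed by stalled E. coli RNA polymerase on Illumina chips. A doubling series of SNAP-549-labelled MS2 coat protein, from 0.7 or 1.5 nM to 3 µM, was applied in Tris-HCl pH 7.5 buffer with KCl, MgCl2, BSA, DTT, tRNA and Tween-20. Each step lasted 0.8–1.5 h at the bottom of the series and 10–20 min at the top. Normalised cluster fluorescence was curve-fitted, giving apparent KD as the per-design median over clusters.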

The mark [1] stands for this setting: Eterna round: R95, input ligand: FMN 200 uM.
Setting [2] is: Eterna round: R95, input ligand: microRNA oligo, concentration not stated.
Where [3] appears, read: Eterna round: R95, input ligand: none.

“AAGAGGUCAGGAUAUACGGAGAGAGGGAGUUGGUUAGGGUAACAUGAGGAUCACCCAUGUAGAAGGGACUAAGA [JR_Exclu2_Sub079] (puzzle: Exclusion 2)”: the “apparent KD of MS2 coat protein” value amounted to 23.4 nM under setting [1], 23.1 nM under setting [2] and 25.1 nM under setting [3].

On to “AAGCGCGUAGGAUAUACAUGAGGAUCACCCAUGUGAGGAGGGAGUUGGAGGUGUGGAAGUAGAAGGACGGAGUG [JR_Exclu3_Sub079] (puzzle: Exclusion 3)”, for which, under setting [2], the “apparent KD of MS2 coat protein” value was 26.9 nM.

“AAGGACUGAGGAUAUGCGCGGGCAAGAUCCUCAAUCCCAAAACAUGAGGAUCACCCAUGUAGAAGGCAGAAAUA [Tereenrion] (puzzle: Exclusion 2)”: the “apparent KD of MS2 coat protein” value under setting [2] was determined as 23.4 nM.

“AAGUACCGUCACGAUAGUGAUGGUACAACAAGCAAAUGUACAUGAGGAUCACCCAUGUCCUCUUUUGCUCGUCUUGU [Sensor 3 - 100] (puzzle: Sensor v3, turn-off variant 2)”: the “apparent KD of MS2 coat protein” value runs as follows: under setting [1], 155 nM; under setting [2], 30.2 nM.

Take “AAGUACUACAAGCUUUGGGACAUGAGGAUCACCCAUGUUCGUCUUAUUGAUCUAGGUACGCUGACGUACCUAGAUCU [Mat - Sensor v3 - turn-off var 1 - JL Mod - D8] (puzzle: Sensor v3, turn-off variant 1)”: the “apparent KD of MS2 coat protein” value was 16.5 nM under setting [1], 73.4 nM under setting [2] and 13.2 nM under setting [3].

On to “AAGUAUAGAGGAUAUAGUGAGUACUACAUGAGGAUCACCCAUGUUCUUCGUUACGUAUUUCUAGAAGGCUGAUAAA [EX-5 Malc#23] (puzzle: Exclusion 5)”, for which, under setting [2], the “apparent KD of MS2 coat protein” value amounted to 106 nM.

For the sequence “AAUAAACAUGAGGAUCACCCAUGUGAGGAUAUACAAAUAAAUAAAUAAAUAAAUAAUAGUAGAAGGCACAAUAA [Excls1-II] (puzzle: Exclusion 1)”, the “apparent KD of MS2 coat protein” value under setting [1] turned out to be 35.9 nM, the “apparent KD of MS2 coat protein” value under setting [2] turned out to be 35.3 nM and the “apparent KD of MS2 coat protein” value under setting [3] was found to be 44 nM.

As to “AAUAACAAGCAGGUCCUAAACAUGAGGAUCACCCAUGUGCUCGUCUUGUAAAGUACUAUCACGAAAGUGAUAGUACA [Sensor 3, v1 - 60] (puzzle: Sensor v3, turn-off variant 1)”, the “apparent KD of MS2 coat protein” value by setting is: under setting [1], 26.8 nM; under setting [2], 297 nM; under setting [3], 28.3 nM.

Consider “AAUAACAAGCCGAUCCUCCACAUGAGGAUCACCCAUGUGCUCGUCUUGUAAAGUACUAUCACGAAAGUGAUAGUACA (Eterna round: R97, puzzle: Sensor, turn-off variant 1)”, for which the “apparent KD of MS2 coat protein” value was determined as 39.2 nM (input ligand: FMN 200 uM) and 44 nM (input ligand: none).

As for “AAUAACAAGCUGAUCCUGCACAUGAGGAUCACCCAUGUGCUCGUCUUGUAAAGUACUAUCACGAAAGUGAUAGUACA (Eterna round: R97, puzzle: Sensor, turn-off variant 1)”, the “apparent KD of MS2 coat protein” value is, setting by setting: (input ligand: FMN 200 uM) 16.3 nM; (input ligand: none) 21.2 nM.

On to “AAUAACAGAGGAUAUACUAUUUUAUGUGUUUAUUGUUUUGAACAUGAGGAUCACCCAUGUAGAAGGCUGAGUAA [JMF 38] (puzzle: Exclusion 2)”, for which, under setting [2], the “apparent KD of MS2 coat protein” value is 27.5 nM.

Consider “AAUAACAGAGGAUAUACUAUUUUAUGUGUUUGUUAUUUUGAACAUGAGGAUCACCCAUGUAGAAGGCUGAAUAA [JMF 22] (puzzle: Exclusion 2)”, for which, under setting [2], the “apparent KD of MS2 coat protein” value stood at 21.7 nM.

On to “AAUAACAGAGGAUAUACUAUUUUAUGUGUUUGUUGUUUUGAACAUGAGGAUCACCCAUGUAGAAGGCUGAAUGA [JMF 69] (puzzle: Exclusion 2)”, for which the “apparent KD of MS2 coat protein” value under setting [2] was 25.3 nM.

For “AAUAACAGAGGAUAUACUAUUUUAUGUGUUUGUUGUUUUGAACAUGAGGAUCACCCAUGUAGAAGGCUGAUUAA [JMF 52] (puzzle: Exclusion 2)”, the “apparent KD of MS2 coat protein” value under setting [2] amounted to 34.3 nM.

Take “AAUAACAGAGGAUAUACUAUUUUAUGUGUUUGUUGUUUUGAACAUGAGGAUCACCCAUGUAGAAGGCUGAUUGA [JMF 80] (puzzle: Exclusion 2)”: the “apparent KD of MS2 coat protein” value under setting [2] is 39.6 nM.

On to “AAUAACUCAGUGAGGAUAUUUGCGGGUGUUUUCGCAAAGAAGGCACAUGAGGAUCACCCAUGUCAGAGGAGCUA [Eternabot (Original) Solution 24] (Eterna round: R97, puzzle: Brourd's mod of Exclusion 4)”, for which the “apparent KD of MS2 coat protein” value is, setting by setting: (input ligand: FMN 200 uM) 214 nM; (input ligand: none) 120 nM.

Take “AAUAAGCGAGGAUAUGCGGGCGGGUGCGGCCAGCCGAUGUGACAUGAGGAUCACCCAUGUAGAAGGCGCAAUAA [Excls2-VI] (puzzle: Exclusion 2)”: the “apparent KD of MS2 coat protein” value reads like this: under setting [1], 15.9 nM; under setting [2], 11.4 nM; under setting [3], 10.7 nM.

Take “AAUAAGCUAGGAUAUACAUGAGGAUCACCCAUGUGAGGGCACCGCCGGCGCGGGCCCGGUAGAAGGAGCAAUAA [Exc;s3-IV] (puzzle: Exclusion 3)”: the “apparent KD of MS2 coat protein” value under setting [2] was determined as 16.1 nM.

For “AAUAAGUGAGGAUAUACUAAAAUAUGAAUAAAAUAAAUAAAACAUGAGGAUCACCCAUGUAGAAGGCACAAUAA [JMF's Not so obvious solution 5] (puzzle: Exclusion 2)”, the “apparent KD of MS2 coat protein” value runs as follows: under setting [1], 22.6 nM; under setting [2], 23.9 nM; under setting [3], 22.2 nM.

For “AAUAAUAAGGAGGAUAUCGUAACCGAAAGGUUACGAGAAGGCCUAACAUGAGGAUCACCCAUGUUCCUCAAUAA [Mat - Exclusion 6 - Eli Mod - D56] (puzzle: Exclusion 6)”, the “apparent KD of MS2 coat protein” value is, setting by setting: under setting [1], 468 nM; under setting [2], 186 nM; under setting [3], 389 nM.

For the sequence “AAUAAUAAGGAGGAUAUCGUAUCGGAAACGAUACGAGAAGGUCUAACAUGAGGAUCACCCAUGUUCCUCAAUAA [Fiskers Ex 6 - 1] (puzzle: Exclusion 6)”, the “apparent KD of MS2 coat protein” value under setting [2] stood at 33.6 nM.

Take “AAUAAUGCAGGAUAUACAUGAGGAUCACCCAUGUGAAUAAAAUAAAUAAAAUGAUAAAGUAGAAGGGCAAAUAA [JMF's solution 1] (puzzle: Exclusion 3)”: the “apparent KD of MS2 coat protein” value was 28 nM under setting [1], 28.8 nM under setting [2] and 35.5 nM under setting [3].

Regarding “AAUAGGACAGGAUAUCCGGAGUCGAACAUGAGGAUCACCCAUGUGAUGAGGAUGUUCGCUGGAGAAGGGUCUGGCU [Atisdiis] (puzzle: Exclusion 5)”, the “apparent KD of MS2 coat protein” value is 83.9 nM under setting [1], 124 nM under setting [2] and 176 nM under setting [3].

For “AAUCCUGAAGUUAGGAUAUGAAGUAUCACUACACUUUAGAAGGAACUUGAGGAUCACCCAAGUAGCCGUGAGGC [jl-bmx4.4.65 ViennaUCT mod] (Eterna round: R97, puzzle: Brourd's mod of Exclusion 4)”, the “apparent KD of MS2 coat protein” value (input ligand: FMN 200 uM) was 68 nM and the “apparent KD of MS2 coat protein” value (input ligand: none) was determined as 22.4 nM.

With “AAUGAUUCAGGAUAUACAUGAGGAUCACCCAUGUUGGUGUCCCUCCCAAAGUUGCAGUGUAGAAGGGAGUCCCG [Tigezaonbi] (puzzle: Exclusion 3)”, the “apparent KD of MS2 coat protein” value under setting [2] came out at 132 nM.

Regarding “AAUUAAACAAGCAGAUCCCACAUGAGGAUCACCCAUGUGCUCGUCUUAUAAGGUACUGUGACGAGAGUCACGGUACC [Mat - Sensor, turn-off var - Eli Mod - D64] (Eterna round: R97, puzzle: Sensor, turn-off variant 1)”, the “apparent KD of MS2 coat protein” value by setting is: (input ligand: FMN 200 uM) 66.4 nM; (input ligand: none) 47.4 nM.
